Experimental data taken from patent US20150232568A1 (published 2015).
Residue numbers refer to the chain shown, from its start.

Columns and labels:
Experiment in all cases: Biacore (SPR)
human Jag1-DSL-EGF1-4 = human Jag1-DSL-EGF1-4 (UniProt P78504 34-377)
[1] = biological target: T1, murine Jag2-DSL-EGF1-4 (M27-E388) (UniProt Q9QYE5 27-388)
T1 chain: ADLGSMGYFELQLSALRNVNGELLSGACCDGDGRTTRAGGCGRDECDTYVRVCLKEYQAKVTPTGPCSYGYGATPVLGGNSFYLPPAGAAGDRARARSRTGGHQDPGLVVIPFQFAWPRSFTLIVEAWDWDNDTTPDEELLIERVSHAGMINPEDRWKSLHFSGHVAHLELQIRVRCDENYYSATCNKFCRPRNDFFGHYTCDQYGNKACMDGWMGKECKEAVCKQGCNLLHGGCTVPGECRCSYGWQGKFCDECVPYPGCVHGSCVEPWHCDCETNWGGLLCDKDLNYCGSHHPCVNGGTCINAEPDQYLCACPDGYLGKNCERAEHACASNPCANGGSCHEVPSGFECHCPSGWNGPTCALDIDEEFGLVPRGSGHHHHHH

[2] = biological target: T2, human Jag2-DSL-EGF1-4 (R2-E388) (UniProt Q9Y219 24-388)
T2 chain: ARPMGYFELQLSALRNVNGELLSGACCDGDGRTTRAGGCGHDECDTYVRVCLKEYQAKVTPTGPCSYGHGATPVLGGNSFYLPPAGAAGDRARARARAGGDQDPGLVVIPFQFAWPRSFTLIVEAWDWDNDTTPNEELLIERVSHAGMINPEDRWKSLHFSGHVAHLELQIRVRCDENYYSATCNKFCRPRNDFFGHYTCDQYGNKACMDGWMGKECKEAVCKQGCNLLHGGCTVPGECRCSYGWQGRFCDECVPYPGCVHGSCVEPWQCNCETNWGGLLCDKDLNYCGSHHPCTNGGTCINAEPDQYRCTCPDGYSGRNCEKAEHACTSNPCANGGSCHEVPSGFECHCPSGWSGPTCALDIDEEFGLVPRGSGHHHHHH

B1: D-1 (antibody, V domains shown)
VH: EVQLVESGGGLVQPGGSLRLSCAASGFTFTSNYMSWVRQAPGKGLEWVSTIWYQSGTTDYADSVKGRFTISADTSKNTAYLQMNSLRAEDTAVYYCARDSPWPSKGFGMDVWGQGTLVTVSS
VL: DIQMTQSPSSLSASVGDRVTITCRASQSISSYLAWYQQKPGKAPKLLIYGASSRASGVPSRFSGSGSGTDFTLTISSLQPEDFATYYCQQYLSSPITFGQGTKVEIK
Human Jag1-DSL-EGF1-4
  Kd: 0.52 nM
[1]
  Kd: 14 nM
[2]
  Kd: 4.6 nM

B2: D (antibody, V domains shown)
VH: B1 VH with D99S, P103S, S104G, K105E
VL: B1 VL with L92Y, I96L
Human Jag1-DSL-EGF1-4
  Kd: 13 nM

B3: D-2 (antibody, V domains shown)
VH: B1 VH with T28S, F29V, T30K, S31P, N32M, S35T, D99S, P103S, S104G, K105E
VL: B1 VL with L92S, I96L
Human Jag1-DSL-EGF1-4
  Kd: 1.1 nM

B4: C-1 (antibody, V domains shown)
VH: EVQLVESGGGLVQPGGSLRLSCAASGFTFTNSDIHWVRQAPGKGLEWVGGITPADGYTDYADSVKGRFTISADTSKNTAYLQMNSLRAEDTAVYYCARSYWSSSPGSAFDYWGQGTLVTVSS
VL: DIQMTQSPSSLSASVGDRVTITCRASQDVSTAVAWYQQKPGKAPKLLIYSASFLYSGVPSRFSGSGSGTDFTLTISSLQPEDFATYYCQQSYISPSTFGQGTKVEIK
Human Jag1-DSL-EGF1-4
  Kd: 0.31 nM
[1]
  Kd: 0.73 nM
[2]
  Kd: 0.12 nM

B5: A-2 (antibody, V domains shown)
VH: EVQLVESGGGLVQPGGSLRLSCAASGFTFSNYGIHWVRQAPGKGLEWVGWITGNGGYSDYADSVKGRFTISADTSKNTAYLQMNSLRAEDTAVYYCARAGSWFAYWGQGTLVTVSS
VL: B4 VL with I93T, S94T, S96P
Human Jag1-DSL-EGF1-4
  Kd: 0.3 nM

B6: C (antibody, V domains shown)
VH: B4 VH with S102N, S103N, A108G
VL: B4 VL with I93T, S94T, S96P
Human Jag1-DSL-EGF1-4
  Kd: 2.3 nM

B7: A (antibody, V domains shown)
VH: B5 VH with G53P, N54D, S58T
VL: B4 VL with I93T, S94T, S96P
Human Jag1-DSL-EGF1-4
  Kd: 94 nM

B8: B-3 (antibody, V domains shown)
VH: EVQLVESGGGLVQPGGSLRLSCAASGFTFTSYDIHWVRQAPGKGLEWVGGISPADGDTDYANSVKGRFTISADTSKNTAYLQMNSLRAEDTAVYYCARNDYDVRFVGSGMDYWGQGTLVTVSS
VL: B4 VL with Y92F, I93T, S94A, S96P
[1]
  Kd: 0.3 nM

B9: B-1 (antibody, V domains shown)
VH: B8 VH with F105T
VL: B4 VL with I93T, P95A, S96P
[1]
  Kd: 1.1 nM

B10: B-2 (antibody, V domains shown)
VH: B8 VH with F105S
VL: B4 VL with Y92W, I93T, S94A, S96P
[1]
  Kd: 0.0025 nM

B11: B (antibody, V domains shown)
VH: B8 VH with F105S
VL: B4 VL with I93T, S94T, S96P
[1]
  Kd: 1 nM
[2]
  Kd: 1 nM
